Results taken from US20240018502A1.
Where a chain is given by its changes, count along the chain named. In names and notes the source's numbering stands. One block for each binder: values may come before it.

Target: plasma purified human complement protein C3 (human) (UniProt P01024)
Assay: cell-based or functional assay

Sequence of plasma purified human complement protein C3 (human) (P01024 23-667, chain 1 of 2): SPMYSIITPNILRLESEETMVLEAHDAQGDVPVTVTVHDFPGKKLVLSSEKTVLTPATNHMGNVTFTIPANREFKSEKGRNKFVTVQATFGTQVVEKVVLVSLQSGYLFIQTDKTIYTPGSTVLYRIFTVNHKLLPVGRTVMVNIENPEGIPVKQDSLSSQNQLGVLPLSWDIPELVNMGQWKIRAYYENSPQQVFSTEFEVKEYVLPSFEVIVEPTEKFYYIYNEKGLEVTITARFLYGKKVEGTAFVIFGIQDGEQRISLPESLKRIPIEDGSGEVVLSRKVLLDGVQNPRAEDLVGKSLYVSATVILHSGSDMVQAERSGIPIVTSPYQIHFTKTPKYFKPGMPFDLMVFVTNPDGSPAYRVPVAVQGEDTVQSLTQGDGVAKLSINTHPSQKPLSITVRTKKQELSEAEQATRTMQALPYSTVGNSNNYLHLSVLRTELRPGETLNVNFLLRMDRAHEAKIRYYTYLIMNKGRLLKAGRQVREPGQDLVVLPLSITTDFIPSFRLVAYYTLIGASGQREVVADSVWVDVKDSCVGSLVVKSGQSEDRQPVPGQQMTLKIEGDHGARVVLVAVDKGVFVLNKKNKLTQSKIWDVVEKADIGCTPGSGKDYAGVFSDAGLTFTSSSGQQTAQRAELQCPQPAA
Sequence of plasma purified human complement protein C3 (human) (P01024 672-1663, chain 2 of 2): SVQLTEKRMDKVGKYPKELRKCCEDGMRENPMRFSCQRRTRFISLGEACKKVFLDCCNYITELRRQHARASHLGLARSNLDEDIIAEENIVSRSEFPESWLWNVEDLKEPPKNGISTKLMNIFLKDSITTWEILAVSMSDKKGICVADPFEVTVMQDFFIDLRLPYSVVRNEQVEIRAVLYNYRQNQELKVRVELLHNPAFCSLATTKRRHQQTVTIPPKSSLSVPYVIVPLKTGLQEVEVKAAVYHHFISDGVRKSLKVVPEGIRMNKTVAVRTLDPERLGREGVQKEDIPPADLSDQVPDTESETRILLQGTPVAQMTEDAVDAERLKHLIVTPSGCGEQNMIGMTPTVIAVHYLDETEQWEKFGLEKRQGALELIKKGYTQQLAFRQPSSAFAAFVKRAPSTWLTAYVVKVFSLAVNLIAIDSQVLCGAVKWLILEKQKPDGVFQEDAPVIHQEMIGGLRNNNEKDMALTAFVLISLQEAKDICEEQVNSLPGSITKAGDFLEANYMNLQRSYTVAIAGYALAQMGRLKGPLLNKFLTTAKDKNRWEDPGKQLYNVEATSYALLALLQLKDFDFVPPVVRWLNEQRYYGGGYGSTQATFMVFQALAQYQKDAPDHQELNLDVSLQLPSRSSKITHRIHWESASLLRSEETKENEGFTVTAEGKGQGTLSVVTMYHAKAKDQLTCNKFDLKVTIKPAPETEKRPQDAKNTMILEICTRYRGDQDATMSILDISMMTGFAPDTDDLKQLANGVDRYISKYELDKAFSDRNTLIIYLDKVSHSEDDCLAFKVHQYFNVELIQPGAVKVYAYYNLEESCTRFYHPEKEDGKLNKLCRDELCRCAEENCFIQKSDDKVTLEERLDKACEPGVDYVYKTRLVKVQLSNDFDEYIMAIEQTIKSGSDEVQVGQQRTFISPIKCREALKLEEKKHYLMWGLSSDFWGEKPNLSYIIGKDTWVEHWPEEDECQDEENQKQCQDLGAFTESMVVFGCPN

EC50 hC3 cleavage: 42.2 nM
B1: MTSP-1 protease domain F97R/ins97aT/T98V/C122S/Q175M/Q192T/D217S (enzyme)
chain: VVGGTDADEGEWPWQVSLHALGQGHICGASLISPNWLVSAAHCYIDDRGFRYSDPTQWTAFLGLHDQSQRSAPGVQERRLKRIISHPFFNDRTVFDYDIALLELEKPAEYSSMVRPISLPDASHVFPAGKAIWVTGWGHTQYGGTGALILQKGEIRVINQTTCENLLPQMITPRMMCVGFLSGGVDSCTGDSGGPLSSVEADGRIFQAGVVSWGSGCAQRNKPGVYTRLPLFRDWIKENTGV

EC50 hC3 cleavage: 2400 nM
B2: MTSP-1 protease domain F97S/ins97aN/T98G/F99M/C122S/Q175T/Q192T/D217S (enzyme)
chain: B1 chain with R92S, T93N, V94G, F95M, M170T

EC50 hC3 cleavage: 905 nM
B3: MTSP-1 protease domain F97V/ins97aH/T98R/F99L/C122S/Q175R/Q192G/D217S (enzyme)
chain: B1 chain with R92V, T93H, V94R, F95L, M170R, T189G

EC50 hC3 cleavage: 256 nM
B4: MTSP-1 protease domain F97L/ins97aM/T98N/F99L/C122S/Q175T/Q192T/D217S (enzyme)
chain: B1 chain with R92L, T93M, V94N, F95L, M170T

EC50 hC3 cleavage: 1.43 nM
B5: MTSP-1 protease domain Q38H/I41S/D60bT/F60eS/Y60gW/D96K/F97G/ins97aA/T98P/F99L/C122S/G151H/Q175L/Q192D (enzyme)
chain: VVGGTDADEGEWPWQVSLHALGHGHSCGASLISPNWLVSAAHCYIDTRGSRWSDPTQWTAFLGLHDQSQRSAPGVQERRLKRIISHPFFNKGAPLDYDIALLELEKPAEYSSMVRPISLPDASHVFPAGKAIWVTGWGHTQYGGTHALILQKGEIRVINQTTCENLLPQLITPRMMCVGFLSGGVDSCDGDSGGPLSSVEADGRIFQAGVVSWGDGCAQRNKPGVYTRLPLFRDWIKENTGV

EC50 of hC3 cleavage: 12 nM
B6: MTSP-1 Q38H/I41S/D60bT/F60eS/Y60gW/D96K/ins97aV/T98P/F99L/C122S/G151H/Q175L/Q192D (enzyme)
chain: B5 chain with G92F, A93V

EC50 of hC3 cleavage: 169 nM
B7: MTSP-1 Q38H/I41S/D60bT/F60eS/Y60gW/F97G/ins97aV/T98P/F99L/C122S/G151H/Q175L/Q192D (enzyme)
chain: B5 chain with K91D, A93V

EC50 of hC3 cleavage: 5.92 nM
B8: MTSP-1 Q38H/I41S/D60bT/F60eS/Y60gW/D96K/F97D/ins97aA/T98P/F99L/C122S/G151N/Q175L/Q192D (enzyme)
chain: B5 chain with G92D, H146N

EC50 hC3 cleavage: 47.8 nM
B9: MTSP-1 protease domain I41G/F97A/F99L/C122S/G151H/Q175L/Q192G/D217L (enzyme)
chain: VVGGTDADEGEWPWQVSLHALGQGHGCGASLISPNWLVSAAHCYIDDRGFRYSDPTQWTAFLGLHDQSQRSAPGVQERRLKRIISHPFFNDATLDYDIALLELEKPAEYSSMVRPISLPDASHVFPAGKAIWVTGWGHTQYGGTHALILQKGEIRVINQTTCENLLPQLITPRMMCVGFLSGGVDSCGGDSGGPLSSVEADGRIFQAGVVSWGLGCAQRNKPGVYTRLPLFRDWIKENTGV

EC50 hC3 cleavage: 107 nM
B10: MTSP-1 protease domain I41G/F97S/F99L/C122S/G151N/Q175I/D217T (enzyme)
chain: B9 chain with A92S, H145N, L169I, G188Q, L214T

EC50 hC3 cleavage: 44.7 nM
B11: MTSP-1 protease domain I41G/F99L/C122S/G151N/Q192T/D217T (enzyme)
chain: B9 chain with A92F, H145N, L169Q, G188T, L214T

EC50 hC3 cleavage: 13 nM
B12: MTSP-1 protease domain I41E/F97R/F99L/C122S/G151Q/Q175G/Q192T/D217V (enzyme)
chain: B9 chain with G26E, A92R, H145Q, L169G, G188T, L214V

EC50 hC3 cleavage: 49.4 nM
B13: MTSP-1 protease domain I41E/F97V/F99L/C122S/G151N/Q175L/Q192S/D217H (enzyme)
chain: B9 chain with G26E, A92V, H145N, G188S, L214H

EC50 hC3 cleavage: 70.9 nM
B14: MTSP-1 protease domain I41D/F97T/F99L/C122S/G151N/Q175S/Q192T/D217A (enzyme)
chain: B9 chain with G26D, A92T, H145N, L169S, G188T, L214A

EC50 hC3 cleavage: 108 nM
B15: MTSP-1 protease domain I41G/F99L/C122S/G151N/Q175I/Q192T/D217T (enzyme)
chain: B9 chain with A92F, H145N, L169I, G188T, L214T

EC50 hC3 cleavage: 42.2 nM
B16: MTSP-1 protease domain I41E/F97V/F99L/C122S/G151N/Q192S/D217H (enzyme)
chain: B9 chain with G26E, A92V, H145N, L169Q, G188S, L214H

EC50 hC3 cleavage: 131 nM
B17: MTSP-1 protease domain I41T/F97H/F99L/C122S/G151N/Q175H/Q192V/D217L (enzyme)
chain: B9 chain with G26T, A92H, H145N, L169H, G188V

EC50 hC3 cleavage: 524 nM
B18: MTSP-1 protease domain F97S/F99L/C122S/G151N/Q175I/Q192T/D217T (enzyme)
chain: B9 chain with G26I, A92S, H145N, L169I, G188T, L214T

EC50 hC3 cleavage: 485 nM
B19: MTSP-1 protease domain I41E/F97A/F99M/C122S/G151N/Q175R/Q192S/D217E (enzyme)
chain: B9 chain with G26E, L94M, H145N, L169R, G188S, L214E

EC50 hC3 cleavage: 91.6 nM
B20: MTSP-1 protease domain F97V/F99L/C122S/G151N/Q175L/Q192S/D217H (enzyme)
chain: B9 chain with G26I, A92V, H145N, G188S, L214H

EC50 hC3 cleavage: 105 nM
B21: MTSP-1 protease domain I41G/F97S/F99L/C122S/G151N/Q192T/D217T (enzyme)
chain: B9 chain with A92S, H145N, L169Q, G188T, L214T

EC50 hC3 cleavage: 3670 nM
B22: MTSP-1 protease domain F97Q/F99L/C122S/Q175N/Q192V/D217G (enzyme)
chain: B9 chain with G26I, A92Q, H145G, L169N, G188V, L214G

EC50 hC3 cleavage: 36.8 nM
B23: MTSP-1 protease domain I41G/F97L/F99L/C122S/G151T/Q175M/Q192D/D217M (enzyme)
chain: B9 chain with A92L, H145T, L169M, G188D, L214M

EC50 hC3 cleavage: 860 nM
B24: MTSP-1 protease domain I41G/F97S/C122S/G151N/Q175I/Q192T/D217T (enzyme)
chain: B9 chain with A92S, L94F, H145N, L169I, G188T, L214T

EC50 hC3 cleavage: 51.6 nM
B25: MTSP-1 protease domain I41G/F99L/C122S/G151N/Q175I/Q192T (enzyme)
chain: B9 chain with A92F, H145N, L169I, G188T, L214D

EC50 hC3 cleavage: 52.8 nM
B26: MTSP-1 protease domain I41G/F97S/F99L/C122S/G151T/Q175R/Q192A/D217Y (enzyme)
chain: B9 chain with A92S, H145T, L169R, G188A, L214Y

EC50 hC3 cleavage: 81.8 nM
B27: MTSP-1 protease domain I41G/F99L/C122S/Q175I/Q192T/D217T (enzyme)
chain: B9 chain with A92F, H145G, L169I, G188T, L214T

EC50 hC3 cleavage: 45.6 nM
B28: MTSP-1 protease domain I41G/F97T/F99M/C122S/G151D/Q175T/Q192T/D217V (enzyme)
chain: B9 chain with A92T, L94M, H145D, L169T, G188T, L214V

EC50 hC3 cleavage: 84.4 nM
B29: MTSP-1 protease domain I41G/F97S/F99L/C122S/G151N/Q175I/Q192T/D217T (enzyme)
chain: B9 chain with A92S, H145N, L169I, G188T, L214T

EC50 hC3 cleavage: 27.1 nM
B30: MTSP-1 protease domain I41E/F99L/C122S/G151N/Q175L/Q192S/D217H (enzyme)
chain: B9 chain with G26E, A92F, H145N, G188S, L214H

EC50 hC3 cleavage: 97.7 nM
B31: MTSP-1 protease domain I41G/F97S/F99L/C122S/G151N/Q175I/Q192T (enzyme)
chain: B9 chain with A92S, H145N, L169I, G188T, L214D

EC50 hC3 cleavage: 44.3 nM
B32: MTSP-1 protease domain I41E/F97V/F99L/C122S/Q175L/Q192S/D217H (enzyme)
chain: B9 chain with G26E, A92V, H145G, G188S, L214H

EC50 hC3 cleavage: 159 nM
B33: MTSP-1 protease domain I41R/F97T/F99L/C122S/G151N/Q175T/Q192T/D217I (enzyme)
chain: B9 chain with G26R, A92T, H145N, L169T, G188T, L214I

EC50 hC3 cleavage: 74.3 nM
B34: MTSP-1 protease domain I41S/F97E/F99L/C122S/G151N/Q175G/Q192R/D217A (enzyme)
chain: B9 chain with G26S, A92E, H145N, L169G, G188R, L214A

EC50 hC3 cleavage: 16.5 nM
B35: MTSP-1 protease domain I41E/F97V/F99L/C122S/G151N/Q175L/D217H (enzyme)
chain: B9 chain with G26E, A92V, H145N, G188Q, L214H

EC50 hC3 cleavage: 137 nM
B36: MTSP-1 protease domain F97R/F99L/C122S/G151Q/Q175R/Q192V/D217L (enzyme)
chain: B9 chain with G26I, A92R, H145Q, L169R, G188V

EC50 hC3 cleavage: 88 nM
B37: MTSP-1 protease domain I41D/F97R/F99L/C122S/G151Q/Q175R/Q192V/D217L (enzyme)
chain: B9 chain with G26D, A92R, H145Q, L169R, G188V

EC50 hC3 cleavage: 401 nM
B38: MTSP-1 protease domain I41R/F97A/F99L/C122S/G151N/Q175R/Q192G/D217Q (enzyme)
chain: B9 chain with G26R, H145N, L169R, L214Q

EC50 hC3 cleavage: 51.2 nM
B39: MTSP-1 protease domain I41E/F97V/F99L/C122S/G151N/Q175L/Q192S (enzyme)
chain: B9 chain with G26E, A92V, H145N, G188S, L214D

EC50 hC3 cleavage: 34 nM
B40: MTSP-1 protease domain I41G/F97L/F99L/C122S/G151N/Q175A/Q192V/D217R (enzyme)
chain: B9 chain with A92L, H145N, L169A, G188V, L214R

EC50 hC3 cleavage: 155 nM
B41: MTSP-1 protease domain I41G/F97S/F99L/C122S/Q175I/Q192T/D217T (enzyme)
chain: B9 chain with A92S, H145G, L169I, G188T, L214T
